# Measured values taken from the supplement of paper PMC10567573.
# B1: ATL3 (parent)
# chain: FSFRYQQELEEEIKELYENFCKHN
# Variants of: B1
# Test: protein stability index of a GFP-peptide fusion (GPS, HEK-293T) (PSI 1-6); higher = more stable
# Conditions: c terminus: a fixed tail appended
# 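Also: lentivirally expressed fusions sorted by FACS into six bins by GFP to DsRed ratio, PSI derived from sequencing read proportions per bin multiplied by bin number.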
row,Variant,protein stability index
1,FSFRYQQELEEEIKELYYNFCKHN [E18Y],2.15
2,FSFRYQQELEEEIKELYPNFCKHN [E18P],1.77
3,FSFRYQQELEEEIKELYHNFCKHN [E18H],1.89
4,FSFRYQQELEEEIKELYWNFCKHN [E18W],1.34
5,FSFRYQQELEEEIKELYANFCKHN [E18A],2.19
6,FSFRYQQELEEEIKELYCNFCKHN [E18C],1.57
7,FSFRYQQELEEEIKELYDNFCKHN [E18D],2.6
8,FSFRYQQELEEEIKELYFNFCKHN [E18F],1.21
9,FSFRYQQELEEEIKELYTNFCKHN [E18T],2.52
10,FSFRYQQELEEEIKELYNNFCKHN [E18N],2.15
11,FSFRYQQELEEEIKELYLNFCKHN [E18L],1.55
12,FSFRYQQELEEEIKELYKNFCKHN [E18K],1.72
13,FSFRYQQELEEEIKELYSNFCKHN [E18S],1.91
14,FSFRYQQELEEEIKELYVNFCKHN [E18V],3.55
15,FSFRYQQELEEEIKELYINFCKHN [E18I],2.28
16,FSFRYQQELEEEIKELYRNFCKHN [E18R],1.96
17,FSFRYQQELEEEIKELYMNFCKHN [E18M],2.27
18,FSFRYQQELEEEIKELYQNFCKHN [E18Q],1.8
19,FSFRYQQELFEEIKELYENFCKHN [E10F],2.06
20,FSFRYQQELWEEIKELYENFCKHN [E10W],2.02
21,FSFRYQQELCEEIKELYENFCKHN [E10C],1.77
22,FSFRYQQELNEEIKELYENFCKHN [E10N],2.13
23,FSFRYQQELTEEIKELYENFCKHN [E10T],2.37
24,FSFRYQQELYEEIKELYENFCKHN [E10Y],1.75

row,Variant,protein stability index
1,FSFRYQQELSEEIKELYENFCKHN [E10S],2.23
2,FSFRYQQELHEEIKELYENFCKHN [E10H],1.81
3,FSFRYQQELAEEIKELYENFCKHN [E10A],2.02
4,FSFRYQQELKEEIKELYENFCKHN [E10K],2.2
5,FSFRYQQELQEEIKELYENFCKHN [E10Q],2
6,FSFRYQQELMEEIKELYENFCKHN [E10M],1.75
7,FSFRYQQELPEEIKELYENFCKHN [E10P],2.61
8,FSFRYQQELREEIKELYENFCKHN [E10R],1.78
9,FSFRYQQELVEEIKELYENFCKHN [E10V],1.47
10,FSFRYQQELIEEIKELYENFCKHN [E10I],1.46
11,FSFRYQQELLEEIKELYENFCKHN [E10L],1.6
12,FSFRYQQELGEEIKELYENFCKHN [E10G],1.9
13,FSFRYQQELDEEIKELYENFCKHN [E10D],3.31
14,FSFRYQQELEEEVKELYENFCKHN [I13V],2.07
15,FSFRYQQELEEEHKELYENFCKHN [I13H],2.82
16,FSFRYQQELEEETKELYENFCKHN [I13T],2.91
17,FSFRYQQELEEEQKELYENFCKHN [I13Q],2.19
18,FSFRYQQELEEEYKELYENFCKHN [I13Y],2.83
19,FSFRYQQELEEEKKELYENFCKHN [I13K],2.79
20,FSFRYQQELEEECKELYENFCKHN [I13C],3.79
21,FSFRYQQELEEEPKELYENFCKHN [I13P],2.45
22,FSFRYQQELEEESKELYENFCKHN [I13S],2.17
23,FSFRYQQELEEEGKELYENFCKHN [I13G],2.29
24,FSFRYQQELEEEMKELYENFCKHN [I13M],2.65

row,Variant,protein stability index
1,FSFRYQQELEEERKELYENFCKHN [I13R],2.53
2,FSFRYQQELEEEAKELYENFCKHN [I13A],2.31
3,FSFRYQQELEEENKELYENFCKHN [I13N],2.46
4,FSFRYQQELEEEFKELYENFCKHN [I13F],2.66
5,FSFRYQQELEEEEKELYENFCKHN [I13E],2.9
6,FSFRYQQELEEEDKELYENFCKHN [I13D],2.69
7,FSFRYQQELEEELKELYENFCKHN [I13L],1.99
8,FSFRYQQELEEEWKELYENFCKHN [I13W],2.66
9,FSFRYQQELEEEIKEKYENFCKHN [L16K],3.02
10,FSFRYQQELEEEIKENYENFCKHN [L16N],2.86
11,FSFRYQQELEEEIKEVYENFCKHN [L16V],2.28
12,FSFRYQQELEEEIKERYENFCKHN [L16R],2.71
13,FSFRYQQELEEEIKEGYENFCKHN [L16G],3.3
14,FSFRYQQELEEEIKEQYENFCKHN [L16Q],4.14
15,FSFRYQQELEEEIKEMYENFCKHN [L16M],3.39
16,FSFRYQQELEEEIKEDYENFCKHN [L16D],3.13
17,FSFRYQQELEEEIKECYENFCKHN [L16C],2.42
18,FSFRYQQELEEEIKETYENFCKHN [L16T],2.5
19,FSFRYQQELEEEIKEIYENFCKHN [L16I],2.59
20,FSFRYQQELEEEIKEHYENFCKHN [L16H],3.48
21,FSFRYQQELEEEIKESYENFCKHN [L16S],2.79
22,FSFRYQQELEEEIKEEYENFCKHN [L16E],3.18
23,FSFRYQQELEEEIKEPYENFCKHN [L16P],3
24,FSFRYQQELEEEIKEWYENFCKHN [L16W],2.03

row,Variant,protein stability index
1,FSFRYQQELEEEIKEFYENFCKHN [L16F],2.62
2,FSFRYQQELEEEIKEAYENFCKHN [L16A],2.56
3,FSFRYQQELEEEIKEYYENFCKHN [L16Y],2.13
4,FSFRYQQELEEEIVELYENFCKHN [K14V],2.17
5,FSFRYQQELEEEIMELYENFCKHN [K14M],1.53
6,FSFRYQQELEEEIRELYENFCKHN [K14R],2.72
7,FSFRYQQELEEEIHELYENFCKHN [K14H],2.28
8,FSFRYQQELEEEIIELYENFCKHN [K14I],1.62
9,FSFRYQQELEEEIAELYENFCKHN [K14A],2.33
10,FSFRYQQELEEEICELYENFCKHN [K14C],2.15
11,FSFRYQQELEEEIYELYENFCKHN [K14Y],1.62
12,FSFRYQQELEEEILELYENFCKHN [K14L],1.49
13,FSFRYQQELEEEIGELYENFCKHN [K14G],2.37
14,FSFRYQQELEEEINELYENFCKHN [K14N],2.31
15,FSFRYQQELEEEIDELYENFCKHN [K14D],2.81
16,FSFRYQQELEEEIFELYENFCKHN [K14F],1.87
17,FSFRYQQELEEEIEELYENFCKHN [K14E],2.53
18,FSFRYQQELEEEISELYENFCKHN [K14S],1.66
19,FSFRYQQELEEEIPELYENFCKHN [K14P],2.05
20,FSFRYQQELEEEIQELYENFCKHN [K14Q],2.39
21,FSFRYQQELEEEITELYENFCKHN [K14T],2.29
22,FSFRYQQELEEEIWELYENFCKHN [K14W],2.73
